Data published in FireProtDB (doi:10.1073/pnas.91.22.10325).

Conditions: Equus caballus, pH 1.8, Thermal, HCl 20 mM, reversible: yes

Sequence of Cytochrome c wild type, P00004 (P00004 whole entry): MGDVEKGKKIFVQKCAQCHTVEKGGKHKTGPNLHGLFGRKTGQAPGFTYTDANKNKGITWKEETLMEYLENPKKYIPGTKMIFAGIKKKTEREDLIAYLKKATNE

Cytochrome c wild type, P00004
Tm (CD, NaClO4 10 mM): 25.8 °C
heat capacity change of unfolding (CD, NaClO4 10 mM): 0.43 kcal/mol/K
unfolding enthalpy (van 't Hoff) (CD, NaClO4 10 mM): 118 kJ/mol
Tm (CD, NaClO4 20 mM): 37 °C
heat capacity change of unfolding (CD, NaClO4 20 mM): 0.43 kcal/mol/K
unfolding enthalpy (van 't Hoff) (CD, NaClO4 20 mM): 136 kJ/mol
Tm (CD, NaClO4 50 mM): 47 °C
heat capacity change of unfolding (CD, NaClO4 50 mM): 0.43 kcal/mol/K
unfolding enthalpy (van 't Hoff) (CD, NaClO4 50 mM): 159 kJ/mol
Tm (DSC, NaClO4 20 mM): 34.4 °C
heat capacity change of unfolding (DSC, NaClO4 20 mM): 0.31 kcal/mol/K
unfolding enthalpy (calorimetric) (DSC, NaClO4 20 mM): 135 kJ/mol
unfolding enthalpy (van 't Hoff) (DSC, NaClO4 20 mM): 133 kJ/mol
Tm (DSC, NaClO4 30 mM): 40 °C
heat capacity change of unfolding (DSC, NaClO4 30 mM): 0.31 kcal/mol/K
unfolding enthalpy (calorimetric) (DSC, NaClO4 30 mM): 132 kJ/mol
unfolding enthalpy (van 't Hoff) (DSC, NaClO4 30 mM): 132 kJ/mol
Tm (DSC, NaClO4 40 mM): 42.6 °C
heat capacity change of unfolding (DSC, NaClO4 40 mM): 0.31 kcal/mol/K
unfolding enthalpy (calorimetric) (DSC, NaClO4 40 mM): 146 kJ/mol
unfolding enthalpy (van 't Hoff) (DSC, NaClO4 40 mM): 146 kJ/mol
Tm (DSC, NaClO4 50 mM): 44.1 °C
heat capacity change of unfolding (DSC, NaClO4 50 mM): 0.31 kcal/mol/K
unfolding enthalpy (calorimetric) (DSC, NaClO4 50 mM): 141 kJ/mol
unfolding enthalpy (van 't Hoff) (DSC, NaClO4 50 mM): 141 kJ/mol
